Experimental data published in US20260104418A1.
Positions count from the first letter of the chain named.

B1: Ab 416 (antibody, V domains shown)
VH: EFQLQQSGPELVKPGASVKISCKASVYSFTGYNMNWVKQSNGKSLEWIGVINPNYGNTNYNQRFKGKATLTVDQSSSTAYMQLNSLTSEDSAVYYCARSEDYYNIRGASWGQGTLVTVSA
VL: QIVLTQSPAIMSASPGQKVTITCSASSTINYMHWYQQKLGSSPKLWIYDTSKLAPGVPARFSGSGSGTSYSLTISSMEAEDAASYFCHQWSSYPPTFGSGTKLELK
B2: Ab 358 (antibody, V domains shown)
VH: VVQLVESGGDFVQPGGSRKLSCAVSGFTFSSFGMHWVRQAPEKGLEWVAYISSGTTNIYYADTVKGRFTVSRDNPKNSLFLHMTSLRSEDTAMYYCVRSGYYGNSLDYWGQGTPLTVSS
VL: DIVMTQSPSSLTVTAGEKVTMSCKSSQSLFNSGNQRNYLTWYQQKPGQPPKLLIYWASTRESGVPDRFTGSGSGTGFTLTISSVQAEDLAFYYCQNVYIYPLTFGLGTKLELR
B3: Ab 409 (antibody, V domains shown)
VH: QVQLQQSGAELARPGASVKLSCKASGYTFTSYGISWVKQRTGQGLEWIGEISPRSGNTYYNEKFKGKATLTADKSSSTAYMELRSLTSEDSAVYFCATGVITTVIPTDWYFDVWGTGTTVTVSS
VL: DIQMTQTTSSLSASLGDRVTISCRASQDISNYLNWYQQKPDGTVKLLIYYTSRLHSGVPSRFSGSGSGTDYSLTISNLEPEDIATYYCQHYSKLPPTFGSGTKLEIK
B4: Ab 432 (antibody, V domains shown)
VH: QIQLQQSGAELARPRASVKLSCKASGYTFTSDVISWVKQRPGQGLEWIGESYLRNGNTYYNENFKGKATLTADKSSSTAYMELRSLTSEDSAVYFCARSYYGNSFAYWGQGTLVTVSA
VL: DIVMTQSPSSLTVTAREKVTMNCKSTQSLLNSGNQKNYLTWYQQKPGQPPKLLIYWASTRESGVPDRFTGSGSGTDFTLTISSVQAEDLAVYYCQNAYYYPFTFGGGTKLEIK
B5: Ab 360 (antibody, V domains shown)
VH: VVQLQQSGPELVKPGASVKMSCKASGYTFTSYLMHWVRQKPGLGLDWIGYINPYNDGTNYNAKFIDKATLTSDKTSSTAYMELSSLTSEDSAIYYCTRGDYWGQGTSVTVSS
VL: DIVMTQSPSSLAVTAGEQVTMSCKSSQSLLNSGNQKNYLTWYQQKPGQPPKLLIYWASIRQSGVPDRFTGSGSGTDFTLTISSVQAEDLAVYYCLNDYGFPLTFGAGTKLELK
B6: Ab 331 (antibody, V domains shown)
VH: EVQLQQSGPELVKPGASVRMSCKASGYTFTSYIMHWVKQKPGQGPEWMGYINPYNDGTNYNEKFKDKATLTSDKSSSTAYMDLSSLTSEDSAVYYCTRGDYWGQGTSVTVSS
VL: B5 VL with A12T, Q18K, I54F, I59T, R60K, Q61K, G74R, G99S
B7: Ab 301 (antibody, V domains shown)
VH: VVQLQQSGPELVKPGASVKMSCKASGYTFTSFLIHWVRQKPGLGLEWIGYINPYDYGINYNVKFMDKVTLTSDKTSSTAYMELSSLTSADSAIYYCTRGDYWGQGTSVIVSS
VL: B5 VL with A15T, S22N, P46T, P49S, I59T
B8: Ab 347 (antibody, V domains shown)
VH: EVQLQQSGPELVKPGASVKMSCKASGYTFTSYLIHWVKQKPGQGLEWIGYINPYNDATYYNEKFKAKATLTSDKSSSTAYMELSSLTSEDTAIYYCTRGDYWSQGTSVTVSS
VL: B5 VL with A12T, Q18K, I59T, A90T, G99S
B9: Ab 307 (antibody, V domains shown)
VH: DVKLVESGGGLVKPGGSLKLSCAASGFTFSSYTMSWVRQTPEKRLEWVATIIIGGSYTYYPDSVKGRFTISRDNAKNTLYLQMSSLKSEDTAMYYCTRLVKGNAMDYWGQGTSVAVSS
VL: DIVMTQSPSSLTVTTGEKVTMSCKSSQSLLNSGNQKNYLSWYQQIPGQPPKLLFYWASTRESGVPDRFTGSGSGTDFTLTISNVQAEDLAVYYCQNDYSYPFTFGAGTKLELR

The binders below were run against mouse CLDN18.2 (mouse) (UniProt P56857) (assay: FACS titration of AF647-labelled IgG on HEK293T mouse CLDN18.2 cells).

Row | EC50 | Binder
1 | 591 nM | B1
2 | 40.6 nM | B2
3 | 1040 nM | B3
4 | 96.8 nM | B4
5 | 57.7 nM | B5
6 | 810 nM | B6
7 | 1610 nM | B7
8 | 1350 nM | B8
9 | 68.8 nM | B9

These binders were tested against Claudin-18.1 (CLDN18.1) (human) (UniProt P56856) (assay: FACS titration of AF647-labelled IgG on HEK293T CLDN18.1 cells).
Chain of Claudin-18.1 (CLDN18.1) (human) (P56856 whole entry): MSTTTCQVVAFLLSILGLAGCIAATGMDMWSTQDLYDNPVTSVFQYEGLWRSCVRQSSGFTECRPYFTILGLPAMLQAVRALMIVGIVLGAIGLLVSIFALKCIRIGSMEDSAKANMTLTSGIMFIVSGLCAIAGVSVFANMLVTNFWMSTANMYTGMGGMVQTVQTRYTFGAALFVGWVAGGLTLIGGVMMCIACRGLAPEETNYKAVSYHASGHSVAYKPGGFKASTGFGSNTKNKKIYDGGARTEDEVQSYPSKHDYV

Row | EC50 | Binder
10 | 1520 nM | B2
11 | 1760 nM | B5
12 | 1680 nM | B6
13 | 675 nM | B7
14 | 1230 nM | B8
